B1: SC17.19 (antibody, V domains shown)
VH: DVQLQESGPGLVKPSQSLSVTCTVTGYSITSSYTWNWIRQFPGNKLEWMGYIHYSGSTNYNPSLRSRISITRDTSKNQFFLQLNSVTTEDTATYYCARSRYYYDAYGFAYWGQGTLVTVSA
VL: DIVLTQSPASLAVSLGQRAAISCKPSQSVDYDGDSYMNWYQQKPGQPPKLLIYAASNLESGIPARFSGSGSGTDFTLNIHPVEEEDAATYYCHQINDDPWTFGGGTKLK
notes: murine mAb
B2: SC17.36 (antibody, V domains shown)
VH: EVQLQESGPSLVKPSQSQSLTCSVTGDSITSDYWNWIRKFPGKKVEYMGYINYSGSTYYNPSLKSRISITRDTSKNQYYLQLNSVTSEDTATYYCARTSYYNKFLPFAYWGQGTLVTVSA
VL: QIVLTQSPALMSASPGEKVTMTCSASSSVSYMYWYQQKPRSSPKPWIYLTSNLASGVPARFSGSGSGTSYSLTISSMEAEDAATYYCQQWSSNPPTFGGGTKLEIK
notes: murine mAb
B3: SC17.24 (antibody, V domains shown)
VH: QVQLQQSDAELVKPGASVKISCKVSGYTFTDHTIHWMKQRPEQGLEWIGYIYPRDGSTKYNEEFKGKATLTADKSSSTAYMQLNSLTSEDSAVYFCARSYSNYFDYWGQGTTLTVSS
VL: DIVMSQSPSSLAVSVGEKVTMSCKSSQSLLYSSNQKSYLAWYQQKPGQSPKLLIYWASTRESGVPDRFTGSGSGTDFTLTISSVQAEDLAVYYCKQSYNLRTFGGGTKLEIK
notes: murine mAb
B4: SC17.28 (antibody, V domains shown)
VH: QVHLPQSRPELVKPGASVKISCKASGYGFTRSYIHWVKQRPGQGLEWIGYISSGSGGTTYNQKFKGKASLTADNPSSTAYMHLSSLTSEDSAIYFCARGGVRYFDVWGAGTTVTVSS
VL: DILLTQSPAILSVSPGEGVSFSCRASQSIGTSIHWYQQRTNGSPRLLIKYASESISGIPSRFSGSGSGTDFTLRINSLESEDIADYYCQQSNSWPLTFGAGTKLELK
notes: murine mAb

Legend:
[1] = biological target: T1, rat SEZ6 on RIN-m5F cells (rat, UniProt Q7TSK2 20-991 (mouse entry)); experiment: flow cytometry, RIN-m5F cells, 5 ug/mL antibody
T1 construct: endogenous on RIN-m5F cells; also called rSEZ6
T1 chain: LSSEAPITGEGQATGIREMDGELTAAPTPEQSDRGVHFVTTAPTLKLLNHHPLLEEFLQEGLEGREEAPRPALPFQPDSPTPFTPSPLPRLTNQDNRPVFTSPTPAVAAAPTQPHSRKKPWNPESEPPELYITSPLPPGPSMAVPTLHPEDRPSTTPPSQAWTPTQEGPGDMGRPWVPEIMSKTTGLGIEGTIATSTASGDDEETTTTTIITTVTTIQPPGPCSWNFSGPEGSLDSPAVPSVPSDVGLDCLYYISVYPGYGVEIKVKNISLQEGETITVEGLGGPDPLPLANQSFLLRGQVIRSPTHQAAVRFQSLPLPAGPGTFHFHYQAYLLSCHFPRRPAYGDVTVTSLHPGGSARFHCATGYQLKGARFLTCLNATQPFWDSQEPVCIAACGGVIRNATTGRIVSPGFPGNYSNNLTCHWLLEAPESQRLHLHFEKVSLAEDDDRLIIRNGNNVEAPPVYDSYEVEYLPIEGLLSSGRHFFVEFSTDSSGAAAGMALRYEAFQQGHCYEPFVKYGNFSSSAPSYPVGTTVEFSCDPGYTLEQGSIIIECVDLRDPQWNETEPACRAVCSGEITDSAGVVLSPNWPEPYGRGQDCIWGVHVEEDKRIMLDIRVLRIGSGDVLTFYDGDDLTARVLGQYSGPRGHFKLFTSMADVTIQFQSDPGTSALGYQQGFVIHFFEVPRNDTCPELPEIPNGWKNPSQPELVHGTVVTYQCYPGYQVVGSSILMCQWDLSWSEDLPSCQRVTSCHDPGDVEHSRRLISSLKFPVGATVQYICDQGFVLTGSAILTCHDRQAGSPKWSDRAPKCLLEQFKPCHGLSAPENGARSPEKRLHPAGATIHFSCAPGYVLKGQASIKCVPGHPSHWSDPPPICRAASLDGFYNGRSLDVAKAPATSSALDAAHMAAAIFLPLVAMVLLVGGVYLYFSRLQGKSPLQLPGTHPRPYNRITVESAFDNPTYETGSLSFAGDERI
Protocol: (§1) Briefly 1×10⁵ cells per well of Neuro2a, RIN-5mF, or yeast displaying cynomolgus SEZ6 cells were incubated for 30 minutes with 50 μL PBS (2% FCS) buffer with 5 μg/mL antibody. […] After incubating for 15 minutes cells were washed twice with the PBS buffer and re-suspended in the same with DAPI for flow cytometry analysis of Neuro2a and Rin-m5F or buffer without DAPI for flow cytometric analysis of yeast cells with cSEZ6.

hSEZ6-ECD-His = biological target: T2, hSEZ6-ECD-His (human, UniProt Q53EL9 20-925); experiment: bio-layer interferometry (ForteBio RED) or surface plasmon resonance (Biacore 2000) on human SEZ6-His; the table does not say which; column Hu Affinity (Kd, nM)
T2 construct: the whole entry is named; also called recombinant SEZ6-His; human recombinant SEZ6-His
Description: (§2) Various methods were used to analyze the binding and immunochemical characteristics of selected SEZ6 modulators generated as set forth above.

human SEZ6L2 ECD-His [2] = biological target: T3, human SEZ6L2 ECD-His (human, UniProt Q6UXD5 28-843); experiment: mark of Table 5 for antibodies that bind SEZ6L2
T3 construct: whole entry named
T3 sequence (Q6UXD5 other isoform, or with tags, fused parts or gaps): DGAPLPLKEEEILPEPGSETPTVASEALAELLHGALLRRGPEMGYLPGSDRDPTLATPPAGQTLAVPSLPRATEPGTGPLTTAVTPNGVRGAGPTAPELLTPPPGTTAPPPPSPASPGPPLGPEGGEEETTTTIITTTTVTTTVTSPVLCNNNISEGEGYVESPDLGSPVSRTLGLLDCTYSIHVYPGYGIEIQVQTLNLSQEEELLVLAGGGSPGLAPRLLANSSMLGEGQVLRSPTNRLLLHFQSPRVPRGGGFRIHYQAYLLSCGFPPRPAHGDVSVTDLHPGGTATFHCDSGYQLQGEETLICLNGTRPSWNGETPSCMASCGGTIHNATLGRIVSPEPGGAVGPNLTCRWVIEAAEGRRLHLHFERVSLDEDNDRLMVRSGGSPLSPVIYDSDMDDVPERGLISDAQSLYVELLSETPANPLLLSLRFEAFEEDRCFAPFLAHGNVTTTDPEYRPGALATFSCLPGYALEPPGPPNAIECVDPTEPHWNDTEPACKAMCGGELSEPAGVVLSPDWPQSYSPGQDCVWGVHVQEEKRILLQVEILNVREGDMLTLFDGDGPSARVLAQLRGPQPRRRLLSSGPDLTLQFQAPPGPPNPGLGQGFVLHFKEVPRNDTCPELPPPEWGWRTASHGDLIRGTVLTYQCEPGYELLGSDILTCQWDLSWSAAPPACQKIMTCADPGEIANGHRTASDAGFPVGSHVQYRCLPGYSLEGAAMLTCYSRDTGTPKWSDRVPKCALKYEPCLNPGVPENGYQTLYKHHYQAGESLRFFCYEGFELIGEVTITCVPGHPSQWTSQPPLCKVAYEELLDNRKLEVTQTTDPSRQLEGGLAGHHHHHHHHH

[3] = biological target: T4, mouse SEZ6 on Neuro2a cells (mouse, UniProt Q7TSK2 20-991); experiment: flow cytometry, Neuro2a cells, 5 ug/mL antibody
T4 construct: endogenous on Neuro2a cells; also called murine SEZ6; mSEZ6
Protocol: as §1

human SEZ6L ECD-His = biological target: T5, human SEZ6L ECD-His (human, UniProt Q9BYH1 29-955); experiment: ELISA on plates coated with SEZ6L protein
T5 construct: whole entry named
T5 sequence: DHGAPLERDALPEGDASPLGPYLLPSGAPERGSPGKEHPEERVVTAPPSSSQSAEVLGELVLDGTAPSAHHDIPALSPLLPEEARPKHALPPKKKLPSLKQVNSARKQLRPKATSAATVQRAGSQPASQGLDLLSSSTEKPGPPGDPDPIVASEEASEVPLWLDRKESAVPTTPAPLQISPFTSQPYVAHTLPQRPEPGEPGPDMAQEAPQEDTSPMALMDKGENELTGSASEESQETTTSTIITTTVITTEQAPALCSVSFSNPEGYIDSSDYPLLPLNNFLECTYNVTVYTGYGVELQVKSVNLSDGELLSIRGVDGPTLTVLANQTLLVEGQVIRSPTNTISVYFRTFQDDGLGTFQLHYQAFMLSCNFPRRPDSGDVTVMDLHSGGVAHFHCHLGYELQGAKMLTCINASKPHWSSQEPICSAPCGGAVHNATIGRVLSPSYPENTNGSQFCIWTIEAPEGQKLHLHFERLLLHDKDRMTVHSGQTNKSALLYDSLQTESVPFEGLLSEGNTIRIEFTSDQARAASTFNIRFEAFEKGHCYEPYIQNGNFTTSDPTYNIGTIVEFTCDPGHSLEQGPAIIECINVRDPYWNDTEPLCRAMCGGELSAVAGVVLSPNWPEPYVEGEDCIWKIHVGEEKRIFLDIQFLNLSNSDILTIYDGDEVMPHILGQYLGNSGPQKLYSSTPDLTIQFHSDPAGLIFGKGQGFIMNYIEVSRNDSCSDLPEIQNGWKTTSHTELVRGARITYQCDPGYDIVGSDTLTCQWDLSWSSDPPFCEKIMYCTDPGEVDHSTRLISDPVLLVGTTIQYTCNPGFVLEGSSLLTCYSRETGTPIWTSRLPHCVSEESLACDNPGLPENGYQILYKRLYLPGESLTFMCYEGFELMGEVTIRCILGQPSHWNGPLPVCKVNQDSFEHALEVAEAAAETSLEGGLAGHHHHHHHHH
Protocol: (§3) To determine cross reactivity to family member proteins, SEZ6L and SEZ6L2, an ELISA-based assay was used. Plates were coated with SEZ6, SEZ6L, or SEZ6L2 proteins at 0.2 μg/mL in PBS overnight. After washing with PBS containing 0.05% (v/v) Tween 20 (PB ST), the wells were blocked with 2% (w/v) BSA in PBS (PB SA), 100 μL/well for 1 hour at room temperature. Antibody was then added at 1 μg/mL in 100 μL PBSA for 1 hour at room temperature. After washing with PBST, 100 μL/well HRP-labeled goat anti-mouse IgG diluted 1:2,000 in PBSA for 1 hour at room temperature. […] After developing, an equal volume of 2M H₂SO₄ was added to stop substrate development and analyzed by spectrophotometer at OD 450.

human SEZ6L2 ECD-His [4] = biological target: T3, human SEZ6L2 ECD-His; experiment: ELISA on plates coated with SEZ6L2 protein
Protocol: as §3

[5] = biological target: T4, mouse SEZ6 on Neuro2a cells; experiment: flow cytometry on Neuro2a cells expressing mouse SEZ6
Protocol: as §1

[6] = biological target: T1, rat SEZ6 on RIN-m5F cells; experiment: flow cytometry on RIN-m5F cells expressing rat SEZ6, verified by BLI or SPR on rat SEZ6-His
Protocol: as §1
To verify the cross reactivity data above for rat SEZ6 and to determine the affinity and kinetic constants kₒₙ and koff of the selected effectors, either bio-layer interferometry analysis on a ForteBio RED (ForteBio, Inc.) or surface plasmon resonance on a Biacore 2000 (GE Healthcare) were conducted.

[7] = biological target: T6, extracellular domain of cynomolgus SEZ6 on yeast (cynomolgus, UniProt Q53EL9 23-925 (human entry)); experiment: flow cytometry, yeast displaying cynomolgus SEZ6 ECD, 5 ug/mL antibody
T6 construct: yeast display; the whole entry is named; also called cSEZ6; cynomolgus SEZ6 ECD
T6 chain: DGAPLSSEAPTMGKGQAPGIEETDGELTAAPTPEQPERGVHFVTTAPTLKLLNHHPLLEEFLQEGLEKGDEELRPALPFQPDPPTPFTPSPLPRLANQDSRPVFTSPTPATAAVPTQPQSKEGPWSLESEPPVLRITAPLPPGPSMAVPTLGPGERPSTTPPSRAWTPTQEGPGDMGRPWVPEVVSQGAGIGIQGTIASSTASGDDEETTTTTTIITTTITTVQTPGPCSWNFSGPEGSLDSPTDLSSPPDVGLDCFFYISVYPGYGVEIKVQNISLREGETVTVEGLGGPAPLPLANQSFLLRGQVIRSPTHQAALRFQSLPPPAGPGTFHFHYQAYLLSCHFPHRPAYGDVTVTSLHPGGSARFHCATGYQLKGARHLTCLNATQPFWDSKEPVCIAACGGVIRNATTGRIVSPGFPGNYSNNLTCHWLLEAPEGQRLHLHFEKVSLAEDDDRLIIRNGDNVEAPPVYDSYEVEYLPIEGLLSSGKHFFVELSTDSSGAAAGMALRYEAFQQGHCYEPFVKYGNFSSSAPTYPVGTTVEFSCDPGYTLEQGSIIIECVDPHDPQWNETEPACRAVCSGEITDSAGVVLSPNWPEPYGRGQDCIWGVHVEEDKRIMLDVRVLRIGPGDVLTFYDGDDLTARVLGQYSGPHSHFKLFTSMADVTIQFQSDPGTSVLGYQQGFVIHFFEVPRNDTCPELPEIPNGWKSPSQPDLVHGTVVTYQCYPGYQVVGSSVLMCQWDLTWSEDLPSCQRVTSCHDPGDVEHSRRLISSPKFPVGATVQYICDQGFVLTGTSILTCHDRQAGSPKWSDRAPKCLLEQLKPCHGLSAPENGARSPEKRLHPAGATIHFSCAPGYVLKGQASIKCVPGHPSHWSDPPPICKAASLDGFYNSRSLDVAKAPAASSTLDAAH
Protocol: as §1

rSEZ6-ECD-His = biological target: T7, rSEZ6-ECD-His (rat, UniProt Q7TSK2 20-922 (mouse entry)); experiment: bio-layer interferometry (ForteBio RED) or surface plasmon resonance (Biacore 2000) on rat SEZ6-His; the table does not say which; column Rat XR (Kd, nM)
T7 construct: the whole entry is named; also called rat recombinant SEZ6-His; rat SEZ6 ECD
T7 chain: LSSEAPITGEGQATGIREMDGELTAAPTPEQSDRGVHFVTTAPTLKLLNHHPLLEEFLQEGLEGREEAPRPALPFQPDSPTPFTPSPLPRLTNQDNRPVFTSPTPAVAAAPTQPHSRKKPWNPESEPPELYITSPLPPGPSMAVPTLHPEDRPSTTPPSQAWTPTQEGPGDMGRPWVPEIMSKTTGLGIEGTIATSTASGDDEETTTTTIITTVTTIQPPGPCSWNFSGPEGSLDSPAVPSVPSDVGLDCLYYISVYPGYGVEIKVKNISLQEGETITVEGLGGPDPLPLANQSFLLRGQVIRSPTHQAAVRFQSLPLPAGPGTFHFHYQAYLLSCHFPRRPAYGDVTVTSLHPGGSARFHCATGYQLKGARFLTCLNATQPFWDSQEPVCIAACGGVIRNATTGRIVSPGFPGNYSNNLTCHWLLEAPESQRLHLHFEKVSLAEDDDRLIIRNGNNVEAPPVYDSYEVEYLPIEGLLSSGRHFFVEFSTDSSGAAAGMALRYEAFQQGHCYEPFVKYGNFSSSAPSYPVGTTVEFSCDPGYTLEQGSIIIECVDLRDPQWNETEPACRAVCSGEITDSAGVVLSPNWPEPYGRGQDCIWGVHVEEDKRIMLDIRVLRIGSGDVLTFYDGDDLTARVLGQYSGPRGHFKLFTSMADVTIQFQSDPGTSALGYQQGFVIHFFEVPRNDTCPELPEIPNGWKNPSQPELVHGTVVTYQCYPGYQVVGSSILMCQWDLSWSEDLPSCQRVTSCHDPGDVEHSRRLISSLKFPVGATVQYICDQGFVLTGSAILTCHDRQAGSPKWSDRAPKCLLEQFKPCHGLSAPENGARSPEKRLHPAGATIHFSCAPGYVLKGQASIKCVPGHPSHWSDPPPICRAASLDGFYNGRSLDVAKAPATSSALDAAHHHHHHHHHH
Description: as §2

Binder	binding result [1]	Kd (hSEZ6-ECD-His) [nM]	binding result (human SEZ6L2 ECD-His [2])	binding result [3]	binding result (human SEZ6L ECD-His)	binding result (human SEZ6L2 ECD-His [4])	binding result [5]	binding result [6]	binding result [7]	Kd (rSEZ6-ECD-His) [nM]
B1	binds	5.3	binds	binds	no binding (tested: 1 µg/mL)					
B2		6.3			no binding (tested: 1 µg/mL)	no binding (tested: 1 µg/mL)	no binding (tested: 5 µg/mL)	no binding (tested: 5 µg/mL)	binds	
B3		5.1		binds	no binding (tested: 1 µg/mL)	no binding (tested: 1 µg/mL)		no binding (tested: 5 µg/mL)	binds	
B4	binds	22.1	binds		no binding (tested: 1 µg/mL)		no binding (tested: 5 µg/mL)			31

From US20190022241A1 (AbbVie / Abbott, published 2019)
